# Assay results published in patent US20250049953A1, “TREATMENT AND METHOD FOR INHIBITING LATE NA CURRENT” (THE TRUSTEES OF COLUMBIA UNIVERSITY IN THE CITY OF NEW YORK, priority 2022, published 2025).
# Experiments:
# [1] = target: T1, NaV1.5 S1904L mutant channel (Homo sapiens, UniProt Q14524, S1904L); assay: Multichannel recordings of late Na current, NaV1.5 S1904L; format: cell-based; conditions: co-expression
# T1 construct: expressed in transfected cells; host or cells: HEK293 (ATCC CRL1573)
# Experimental: HEK293 cells (ATCC CRL1573) were cultured on glass coverslips in 60-mm dishes and transfected using the Ca^2+-phosphate method as previously described. For electrophysiology experiments, we co-transfected 4-8 μg of cDNA encoding the desired channel variant with 4 μg of YFP, and 1 μg of simian virus 40 T-antigen. […] The culture media was replaced following 4 h of transfection. Electrophysiology recordings were then performed at room temperature 1-2 days following transfection.
# Multichannel records were obtained in the on-cell configuration with either HEK293 cells or in aMVM as in our previous study. The pipette contained (in mM): 140 NaCl; 10 HEPES; 0.5 CaCl2; at 300 mOsm, adjusted with tetraethylammonium methanesulfonate; and pH 7.4 adjusted with tetraethylammonium hydroxide. To zero membrane potential, the bath contained (in mM): 132 K^+-glutamate; 5 KCl; 5 NaCl; 3 MgCl; 2 EGTA; 10 glucose; 20HEPES; at 300 mOsm adjusted with glucose; and pH 7.4 adjusted with NaOH. Data were acquired at room temperature using the integrating mode of an Axopatch 200A amplifier (Axon Instruments, Molecular Devices). Patch pipettes (3-10 MΩ) were pulled from ultra-thick-walled borosilicate glass (BF200-116-10; Sutter Instruments) using horizontal puller (P-97, Sutter Instruments), fire polished with a microforge (Narishige), and coated with Sylgard™ brand silicone elastomer (Dow Corning). Elementary currents were low-pass filtered at 2 kHz with a four-pole Bessel filter and digitized at 200 kHz with an ITC-18 unit (Instrutech), controlled by custom MATLAB software (Mathworks). For each pulse, we obtained P/8 leak pulses. Leak subtraction was performed using an automated algorithm which fit the kinetics of the leak current or the capacitive transient with convex optimization with L1 regularization.
# [2] = target: T2, NaV1.5 E1784K (Homo sapiens, UniProt Q14524, E1784K); assay: Multichannel recordings of late Na current, NaV1.5 E1784K; format: cell-based; conditions: co-expression
# T2 construct: expressed in transfected cells; host or cells: HEK293 (ATCC CRL1573)
# From the text: The human NaV1.5 channel corresponds to clone M77235.1 (GenBank) and is subcloned into pGW 1 vector with HindIII and SaII. To facilitate construction of channelopathic mutations in the channel carboxy-terminus, we introduced silent mutations into NaV1.5 to introduce an NruI cutting site near the channel carboxy-terminus (5329-gtggccacg-5337 into 5329-gtCgcGacg-5337). Subsequently, we used overlap-extension PCR and ligated the PCR product into NaV1.5/pGW1 using NruI and XbaI restriction sites (mutations: E1784K, S1904L, IQ/AA, and Q1909R). For generating the ΔKPQ and IFM/IQM mutations, we used overlap-extension PCR and ligated in NaV1.5/pGW1 following restriction digest using KpnI and XbaI site. For generation of NaV1.5 truncations, we PCR amplified relevant segments using a forward primer upstream of the KpnI site and a reverse primer that truncated at the appropriate location (Δ1810 and Δ1885) and included an XbaI site and ligated into NaV1.5/pW1 vector. For LILA/WICW mutations, we used overlap extension and used restriction site AgeI and NheI for subsequent ligation. All segments subjected to PCR amplification were verified by sequencing. For generating human FHF2 splice-variants, we synthesized gene fragments and ligated into pcDNA3 using BamHI/EcoRI restriction sites. Human FHF1A and FHF1B were subcloned into ECFP-N3 vector, FHF2 splice variants and FHF3 were subcloned into pcDNA3. […]
substance,measurement,setting,value
"FixR: minimal 39-amino-acid FHF1A amino-terminal effector domain, MAAAIASSLIRQKRQARESNSDRVSASKRRSSPSKDGRS (SEQ ID NO: 4), expressed as peptide","change in INa,L",[1],"inhibits INa,L"
same,"change in INa,L",[2],"inhibits INa,L"
